Test results as given in patent publication US8409836B2, “Treatment of cellulosic material and enzymes useful therein” (Roal Oy, priority 2005, dated 2013).

B1: At Cel7A: cellobiohydrolase of Acremonium thermophilum ALKO4245, gene At cel7A, amino acid SEQ ID NO: 6, with CBD (protein)
chain: MYTKFAALAALVATVRGQAACSLTAETHPSLQWQKCTAPGSCTTVSGQVTIDANWRWLHQTNSSTNCYTGNEWDTSICSSDTDCATKCCLDGADYTGTYGVTASGNSLNLKFVTQGPYSKNIGSRMYLMESESKYQGFTLLGQEFTFDVDVSNLGCGLNGALYFVSMDLDGGVSKYTTNKAGAKYGTGYCDSQCPRDLKFINGQANIDGWQPSSNDANAGLGNHGSCCSEMDIWEANKVSAAYTPHPCTTIGQTMCTGDDCGGTYSSDRYAGICDPDGCDFNSYRMGDTSFYGPGKTVDTGSKFTVVTQFLTGSDGNLSEIKRFYVQNGKVIPNSESKIAGVSGNSITTDFCTAQKTAFGDTNVFEERGGLAQMGKALAEPMVLVLSVWDDHAVNMLWLDSTYPTDSTKPGAARGDCPITSGVPADVESQAPNSNVIYSNIRFGPINSTYTGTPSGGNPPGGGTTTTTTTTTSKPSGPTTTTNPSGPQQTHWGQCGGQGWTGPTVCQSPYTCKYSNDWYSQCL
B2: Ta Cel7A + Tr CBD: Thermoascus aurantiacus Cel7A fused to linker and CBD of Trichoderma reesei CBHI/Cel7A, SEQ ID NO: 28 (protein)
chain: MYQRALLFSFFLAAARAQQAGTVTAENHPSLTWQQCSSGGSCTTQNGKVVIDANWRWVHTTSGYTNCYTGNTWDTSICPDDVTCAQNCALDGADYSGTYGVTTSGNALRLNFVTQSSGKNIGSRLYLLQDDTTYQIFKLLGQEFTFDVDVSNLPCGLNGALYFVAMDADGGLSKYPGNKAGAKYGTGYCDSQCPRDLKFINGQANVEGWQPSANDPNAGVGNHGSCCAEMDVWEANSISTAVTPHPCDTPGQTMCQGDDCGGTYSSTRYAGTCDPDGCDFNPYRQGNHSFYGPGQIVDTSSKFTVVTQFITDDGTPSGTLTEIKRFYVQNGKVIPQSESTISGVTGNSITTEYCTAQKAAFGDNTGFFTHGGLQKISQALAQGMVLVMSLWDDHAANMLWLDSTYPTDADPDTPGVARGTCPTTSGVPADVESQYPNSYVIYSNIKVGPIGSTGNPSGGNPPGGNPPGTTTTRRPATTTGSSPGPTQSHYGQCGGIGYSGPTVCASGTTCQVLNPYYSQCL

Key:
Assay type in all cases: biochemical
[1] = Thermal stability of recombinant Cel7 enzymes; conditions: MUL activity, optimum pH, reaction time 1 h
Experimental: (§1) The recombinant CBH/Cel7 enzyme preparations were characterized in terms of pH optimum and thermal stability. The pH optimum of the recombinant CBH/Cel7 proteins from Thermoascus aurantiacus, Chaetomium thermophilum, and Acremonium thermophilum were determined in the universal McIlvaine buffer within a pH range of 3.0-8.0 using 4-methylumbelliferyl-β-D-lactoside (MUL) as a substrate (FIG. 3A). The pH optimum for Ct Cel7A and At Cel7A enzymes is at 5.5, above which the activity starts to gradually drop. The pH optimum of the recombinant crude Ta Cel7A is at 5.0 (FIG. 3A). Thermal stability of the recombinant Cel7 enzymes was determined by measuring the MUL activity in universal McIlvaine buffer at the optimum pH with reaction time of 1 h.

[2] = Hydrolysis with CBH enzyme mixtures, willow; conditions: additional enzymes EGII, bG, 48 h, 45° C., pH 5.0
Summary of the method: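 Purified CBH/Cel7 (14.5 mg/g substrate dry matter) combined with T. reesei EGII/Cel5A (3.6 mg/g) or with EGI (1.8 mg/g), EGII (1.8 mg/g), xylanase pI 9 (5000 nkat/g) and AXE (250 nkat/g), plus β-glucosidase (176 nkat/g). Washed steam-pretreated willow, 10 mg/ml in 0.05 M sodium acetate, 45° C., 48 h. Reducing sugars by DNS (glucose standard).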

[3] = Xylanase activity on birch xylan; conditions: purified cellobiohydrolases, 50° C., pH 5.0
Experimental: (§2) The specific activity of the preparations was determined using 4-methylumbelliferyl-β-D-lactoside (MUL), 4-methylumbelliferyl-β-D-cellobioside (MUG2) or 4-methylumbelliferyl-β-D-cellotrioside (MUG3) as substrate (van Tilbeurgh et al., 1988) in 0.05 M sodium citrate buffer pH 5 at 50° C. for 10 min. Endoglucanase and xylanase activities were determined by standard procedures (according to IUPAC, 1987) using carboxymethyl cellulose (CMC) and birch glucuronoxylan (Bailey et al., 1992) as substrates. Specific activity against Avicel was calculated on the basis of reducing sugars formed in a 24 h reaction at 50° C., pH 5.0, with 1% substrate and 0.25 μM enzyme dosage. The protein content of the purified enzyme preparations was measured according to Lowry et al., 1951. To characterize the end products of hydrolysis, soluble sugars liberated in 24 h hydrolysis experiment, as described above, were analysed by HPLC (Dionex). Purified cellobiohydrolase I (CBHI/Cel7A) of Trichoderma reesei was used as a reference.
Acremonium thermophilum ALKO4245 was grown as described in Example 1. The culture supernatant was incubated at 70° C. for 24 hours after which, it was concentrated by ultrafiltration. The pure xylanase was obtained by sequential purification with hydrophobic interaction and cation exchange chromatography followed by gel filtration. The xylanase activity was determined using birch xylan as substrate (procedure of IUPAC 1987). Protein was assayed by BioRad Protein Assay Kit (Bio-Rad Laboratories) using bovine serum albumin as standard.
Thermoascus aurantiacus ALKO4242 was grown as described in Example 1. The pure xylanase was obtained by sequential purification with hydrophobic interaction, anion, and cation exchange chromatography followed by gel filtration. The xylanase activity was determined using birch xylan as substrate (procedure of IUPAC 1987). Protein was assayed by BioRad Protein Assay Kit (Bio-Rad Laboratories) using bovine serum albumin as standard.

[4] = Hydrolysis with CBH enzyme mixtures, corn stover; conditions: additional enzymes EGII, bG, 48 h, 45° C., pH 5.0
Summary of the method: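 Purified recombinant CBH/Cel7 (14.5 mg/g substrate dry matter) combined with T. reesei EGII/Cel5A or an EGI/EGII/xylanase/AXE mixture, plus β-glucosidase (176 nkat/g). Washed wet-oxidized corn stover, 10 mg/ml in 0.05 M sodium acetate, stirred 48 h at 45° C, triplicate. Reducing sugars by DNS against glucose, versus inactivated-enzyme references.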

[5] = Thermal stability of purified cellobiohydrolases; conditions: 0.1% BSA, pH 5.0, 60 min, MUL substrate
Experimental: Thermal stability of the purified cellobiohydrolases was determined at different temperatures. The reaction was performed in the presence of 0.1% BSA at pH 5.0 for 60 min using 4-methylumbelliferyl-β-D-lactoside as substrate. C. thermophilum ALKO4265 CBH/Cel7A and A. thermophilum ALKO4245 CBH/Cel7A were stable up to 65° and 60° C., respectively. The T. reesei reference enzyme (CBHI/Cel7A) retained 100% of activity up to 55° C.

[6] = Hydrolysis with CBH enzyme mixtures, Avicel; conditions: additional enzymes EGII, bG; 48 h, 45° C., pH 5.0
Summary of the method: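 Each CBH/Cel7 dosed at 14.5 mg/g substrate dry matter with T. reesei EGII/Cel5A (3.6 mg/g) or with EGI (1.8 mg/g), EGII (1.8 mg/g), xylanase (5000 nkat/g) and AXE (250 nkat/g), plus β-glucosidase (176 nkat/g d.w.). Avicel at 10 mg/ml in 0.05 M sodium acetate, stirred 48 h at 45° C, triplicates; reducing sugars by DNS versus glucose standard.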

Specific activity on MUL = conditions: purified cellobiohydrolases, 50° C., pH 5.0
Experimental: as §2

[7] = Endoglucanase activity on carboxymethyl cellulose; conditions: purified cellobiohydrolases, 50° C., pH 5.0
Experimental: as §2
(§3) Acremonium thermophilum ALKO4245 was grown as described in Example 1. The culture supernatant was incubated at 70° C. for 24 hours after which it was concentrated by ultrafiltration. The pure endoglucanase was obtained by sequential purification with hydrophobic interaction and cation exchange chromatography followed by gel filtration. The endoglucanase activity of the fractions collected during purification was determined using carboxymethyl cellulose (CMC) as substrate (procedure of IUPAC 1987). Protein content was measured by BioRad Assay Kit (Bio-Rad Laboratories) using bovine serum albumine as standard.
as §3, with “Thermoascus aurantiacus ALKO4242 was” for “Acremonium thermophilum ALKO4245 was”, “1.” for “1. The culture supernatant was incubated at 70° C. for 24 hours after which it was concentrated by ultrafiltration.”, “and anion” for “and cation”

[8] = Specific activity on MUG2; conditions: purified cellobiohydrolases, 50° C., pH 5.0
Experimental: as §2

[9] = Specific activity against Avicel; conditions: 50° C., pH 5.0, 24 h, 1% substrate, 0.25 μM enzyme
Experimental: as §2

[10] = pH optimum of recombinant CBH/Cel7 proteins; conditions: McIlvaine buffer, pH range 3.0-8.0, MUL, 50° C., 10 min
Experimental: as §1

[11] = Hydrolysis with CBH enzyme mixtures, spruce; conditions: additional enzymes EGII, bG; 48 h, 45° C., pH 5.0
Summary of the method: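 Washed SO2-steam pre-treated spruce (10 mg dry matter/ml, 0.05 M sodium acetate) hydrolysed 48 h at 45 °C with each CBH/Cel7 (14.5 mg/g) plus T. reesei EGII (3.6 mg/g), or plus EGI, EGII, xylanase and AXE, all with added β-glucosidase. Reducing sugars measured by DNS against glucose.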

[12] = Specific activity on MUG3; conditions: purified cellobiohydrolases, 50° C., pH 5.0
Experimental: as §2

[13] = Crystalline cellulose (Avicel) hydrolysis by recombinant cellobiohydrolases; conditions: 70° C., pH 5.0, enzyme 1.4 μM
Experimental: The purified recombinant cellobiohydrolases Ct Cel7A, Ta Cel7A, Ta Cel7A+Tr CBD, Ta Cel7A+Ct CBD, At Cel7A as well as the core version of Ct Cel7A (see below) were tested in equimolar amounts in crystalline cellulose hydrolysis at two temperatures, 45° C. and 70° C.; the purified T. reesei Tr Cel7A and its core version (see below) were used as comparison. The crystalline cellulose (Ph 101, Avicel; Fluka, Bucsh, Switzerland) hydrolysis assays were performed in 1.5 ml tube scale 50 mM sodium acetate, pH 5.0. Avicel was shaken at 45° C. or at 70° C., with the enzyme solution (1.4 μM), and the final volume of the reaction mixture was 325 μl. The hydrolysis was followed up to 24 hours taking samples at six different time points and stopping the reaction by adding 163 μl of stop reagent containing 9 vol of 94% ethanol and 1 vol of 1 M glycine (pH 11). […] The formation of soluble reducing sugars in the supernatant was determined by para-hydroxybenzoicacidhydrazide (PAHBAH) method (Lever, 1972) using a cellobiose standard curve (50 to 1600 μM cellobiose). […] The absorbance of the samples at 405 nm was measured.
The core versions of the cellobiohydrolases harboring a CBD in their native form were obtained as follows: Ct Cel7A and Tr Cel7A were exposed to proteolytic digestion to remove the cellulose-binding domain. […] The product was analysed in SDS-PAGE.

Molecule | Thermal stability at the higher temperatures (≧65° C.) [1] | Hydrolysis products as reducing sugars, WILLOW ([2]; EGI, XYL, AXE) [mg/mL] | Hydrolysis products as reducing sugars, WILLOW [2] [mg/mL] | Specific activity, Xylan [3] [nkat/mg] | Hydrolysis products as reducing sugars, WOCS ([4]; EGI, XYL, AXE) [mg/mL] | Hydrolysis products as reducing sugars, WOCS [4] [mg/mL] | Thermal stability: temperature up to which stable / 100% of activity retained [5] [°C] | Hydrolysis products as reducing sugars, Avicel [6] [mg/mL] | Specific activity, MUL (Specific activity on MUL) [nkat/mg] | Specific activity, CMC [7] [nkat/mg] | Specific activity, MUG2 [8] [nkat/mg] | Specific activity, Avicel [9] [nkat/mg] | pH optimum [10] | Hydrolysis products as reducing sugars, SPRUCE [11] [mg/mL] | Specific activity, MUG3 [12] [nkat/mg] | Avicel hydrolysis as compared to T. reesei Cel7A [13]
B1 | clearly less stable | 5.4 | 3.3 | 11.3 | 6.4 | 4.5 | ≤ 60 | 5.3 | 21.5 | 26.2 | 9.2 | 1.8 | 5.5 | 3.3 | 1.3 | –
B2 | – | 5.9 | 4.0 | – | 7.2 | 4.4 | – | 5.8 | – | – | – | – | – | 4.0 | – | superior
